From patent US20170114115A1

Key:
Experiment in all cases: cell-based or functional assay
[1] = target: human Glucagon-Like Peptide-1 receptor (human) (UniProt P43220)
[2] = target: recombinant human glucagon receptor (human) (UniProt P47871)
[3] = target: T1, human glucose-dependent insulinotropic polypeptide receptor (human) (UniProt P48546)
T1 sequence (looked up): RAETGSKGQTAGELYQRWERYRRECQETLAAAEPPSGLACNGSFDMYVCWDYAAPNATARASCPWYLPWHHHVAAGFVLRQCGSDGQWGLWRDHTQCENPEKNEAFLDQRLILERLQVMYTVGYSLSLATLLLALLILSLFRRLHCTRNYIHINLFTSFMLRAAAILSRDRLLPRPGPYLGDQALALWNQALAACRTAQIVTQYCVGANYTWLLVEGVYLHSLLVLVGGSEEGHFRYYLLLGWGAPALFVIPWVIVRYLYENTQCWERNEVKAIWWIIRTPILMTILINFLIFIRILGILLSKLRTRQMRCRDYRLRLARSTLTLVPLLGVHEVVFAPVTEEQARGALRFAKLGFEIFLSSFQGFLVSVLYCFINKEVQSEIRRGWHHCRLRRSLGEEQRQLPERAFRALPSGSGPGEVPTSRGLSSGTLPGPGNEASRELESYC

recombinant human glucagon receptor (human), sequence (P47871 26-477): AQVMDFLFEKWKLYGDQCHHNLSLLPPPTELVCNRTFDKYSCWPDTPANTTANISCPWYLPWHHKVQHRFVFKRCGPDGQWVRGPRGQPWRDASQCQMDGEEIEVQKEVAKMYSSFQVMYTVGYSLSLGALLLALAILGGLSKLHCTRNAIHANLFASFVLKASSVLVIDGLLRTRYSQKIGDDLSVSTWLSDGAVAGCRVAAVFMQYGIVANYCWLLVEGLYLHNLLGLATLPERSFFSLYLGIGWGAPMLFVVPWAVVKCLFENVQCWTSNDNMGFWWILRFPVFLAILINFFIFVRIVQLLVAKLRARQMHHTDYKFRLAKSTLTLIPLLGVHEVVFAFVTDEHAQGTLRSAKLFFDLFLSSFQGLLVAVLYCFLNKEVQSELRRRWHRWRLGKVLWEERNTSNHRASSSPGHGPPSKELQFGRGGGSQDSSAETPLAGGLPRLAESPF
dulaglutide (Fc fusion), sequence (chain): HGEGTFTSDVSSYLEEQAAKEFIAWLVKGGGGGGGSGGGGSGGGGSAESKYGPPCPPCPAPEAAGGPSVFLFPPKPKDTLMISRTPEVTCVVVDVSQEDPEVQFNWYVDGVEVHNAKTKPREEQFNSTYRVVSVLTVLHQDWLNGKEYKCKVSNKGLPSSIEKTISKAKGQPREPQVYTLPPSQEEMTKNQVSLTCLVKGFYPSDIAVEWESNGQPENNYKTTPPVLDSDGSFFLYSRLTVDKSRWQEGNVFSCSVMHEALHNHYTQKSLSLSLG
human Glucagon-Like Peptide-1 receptor (human), sequence (P43220 24-463): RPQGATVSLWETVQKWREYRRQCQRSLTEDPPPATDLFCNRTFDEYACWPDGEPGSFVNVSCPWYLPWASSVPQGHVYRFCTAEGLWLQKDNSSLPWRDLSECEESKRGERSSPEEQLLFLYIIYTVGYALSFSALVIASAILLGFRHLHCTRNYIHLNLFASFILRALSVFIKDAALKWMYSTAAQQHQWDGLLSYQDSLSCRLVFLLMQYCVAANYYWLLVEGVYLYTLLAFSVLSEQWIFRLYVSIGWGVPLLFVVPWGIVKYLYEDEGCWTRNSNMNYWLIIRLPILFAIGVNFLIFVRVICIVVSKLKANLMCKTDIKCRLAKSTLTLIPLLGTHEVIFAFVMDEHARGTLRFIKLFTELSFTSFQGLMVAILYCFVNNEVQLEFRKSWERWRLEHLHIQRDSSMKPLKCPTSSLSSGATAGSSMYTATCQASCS

dulaglutide (Fc fusion) gave an EC50, GLP-1 Receptor Assay (cAMP); sample C6.5-4 C.-4 wk [1] of 0.37 nM, an EC50, GLP-1 Receptor Assay (cAMP); sample C6.5-40 C.-4 wk [1] of 0.31 nM and an EC50, GLP-1 Receptor Assay (cAMP); sample C6.5MT-4 C.-4 wk [1] of 0.4 nM. For the same substance, the EC50, GLP-1 Receptor Assay (cAMP); sample C6.5MT-40 C.-4 wk [1] was 0.29 nM, the EC50, Gcg Receptor Assay (cAMP); sample C6.5-4 C.-4 wk [2] was 51.9 nM and the EC50, Gcg Receptor Assay (cAMP); sample C6.5-40 C.-4 wk [2] was over 100 nM. For the same substance, the EC50, Gcg Receptor Assay (cAMP); sample C6.5MT-4 C.-4 wk [2] was 54 nM, the EC50, Gcg Receptor Assay (cAMP); sample C6.5MT-40 C.-4 wk [2] was over 100 nM and the EC50, GIP Receptor Assay (cAMP); sample C6.5-4 C.-4 wk [3] was over 100 nM. For the same substance, the EC50, GIP Receptor Assay (cAMP); sample C6.5-40 C.-4 wk [3] was over 100 nM, the EC50, GIP Receptor Assay (cAMP); sample C6.5MT-4 C.-4 wk [3] was over 100 nM and the EC50, GIP Receptor Assay (cAMP); sample C6.5MT-40 C.-4 wk [3] was over 100 nM.
